pKd: −log10 of the molar value.
Columns and labels:
Human CD47 (human) = Human CD47 (human) (UniProt Q08722); experiment: SPR
Mouse CD47 (mouse) = Mouse CD47 (mouse) (UniProt Q61735); experiment: SPR
Sequence of Mouse CD47 (mouse) (Q61735 19-140 limits assumed): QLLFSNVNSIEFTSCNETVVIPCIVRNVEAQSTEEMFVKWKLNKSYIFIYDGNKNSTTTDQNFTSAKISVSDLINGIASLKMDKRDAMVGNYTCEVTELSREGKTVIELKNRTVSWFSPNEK

Sequence of Human CD47 (human) (Q08722 19-139 limits assumed): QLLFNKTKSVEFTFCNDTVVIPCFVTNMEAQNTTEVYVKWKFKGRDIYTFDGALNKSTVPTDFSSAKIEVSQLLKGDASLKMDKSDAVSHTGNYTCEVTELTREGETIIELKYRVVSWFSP

pKd (Human CD47 (human)): 11.27 | koff (Human CD47 (human)): 3.7e-05 s⁻¹ | kon (Human CD47 (human)): 7e+06 M⁻¹ s⁻¹ | pKd (Mouse CD47 (mouse)): 8.21 | koff (Mouse CD47 (mouse)): 0.011 s⁻¹ | kon (Mouse CD47 (mouse)): 1.8e+06 M⁻¹ s⁻¹
Substance: monomeric SIRPα (mSIRPα) (receptor)
